Test results from patent US20170189508A1.

Target: HLA-A*02 (human)
Experiment: UV peptide exchange + b2m ELISA, exchange yield grade

SLTEVSLPL [… (SEQ ID NO: 45)]
peptide exchange yield: 50 to 75%
